Data from paper PMC1635300.

Molecular target: Progesterone receptor isoform B (PRB) (Homo sapiens, UniProt P06401 1-933)
Assay: EMSA

Chain of Progesterone receptor isoform B (PRB) (P06401 whole entry, canonical isoform): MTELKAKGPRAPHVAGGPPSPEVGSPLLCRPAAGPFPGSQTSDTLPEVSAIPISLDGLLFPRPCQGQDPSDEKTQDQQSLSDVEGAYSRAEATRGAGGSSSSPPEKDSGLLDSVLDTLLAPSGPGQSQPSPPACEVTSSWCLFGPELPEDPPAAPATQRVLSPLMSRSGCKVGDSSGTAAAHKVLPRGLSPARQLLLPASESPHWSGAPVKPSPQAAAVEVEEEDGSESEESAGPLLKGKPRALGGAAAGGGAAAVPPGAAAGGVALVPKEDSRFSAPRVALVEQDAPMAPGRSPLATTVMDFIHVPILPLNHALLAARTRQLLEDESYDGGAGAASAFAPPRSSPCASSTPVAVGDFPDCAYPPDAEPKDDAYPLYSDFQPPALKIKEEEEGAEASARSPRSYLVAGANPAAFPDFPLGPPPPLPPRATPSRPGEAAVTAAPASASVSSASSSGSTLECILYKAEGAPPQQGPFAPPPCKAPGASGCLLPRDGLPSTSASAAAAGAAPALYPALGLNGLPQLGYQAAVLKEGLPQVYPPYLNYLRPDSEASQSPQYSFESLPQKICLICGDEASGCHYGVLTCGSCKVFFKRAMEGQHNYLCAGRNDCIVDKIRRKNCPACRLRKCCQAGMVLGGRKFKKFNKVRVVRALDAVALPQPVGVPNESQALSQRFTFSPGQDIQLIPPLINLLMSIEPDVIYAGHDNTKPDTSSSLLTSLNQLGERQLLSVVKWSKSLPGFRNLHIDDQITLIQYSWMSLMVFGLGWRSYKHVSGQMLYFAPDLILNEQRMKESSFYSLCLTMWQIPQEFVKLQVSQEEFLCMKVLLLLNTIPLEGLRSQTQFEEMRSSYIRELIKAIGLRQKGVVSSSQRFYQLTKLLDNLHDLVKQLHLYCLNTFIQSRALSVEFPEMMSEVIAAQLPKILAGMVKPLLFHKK

B1: PRE (dsDNA)
DNA 1: GTTACAAACTGTTCT
DNA 2: AGAACAGTTTGTAAC
- binding result: binds
